From article PMC8115485 (Nature Communications, 2021)
Where a chain is given by its changes, count along the chain named. Numbers in names are those of the source.

Key:
HisH [1] = biological target: T1, HisH (Thermotoga maritima, UniProt Q9X0C8, C84S); test: NMR titration in the presence of ProFAR; type: binding; set-up: HisFH-hC84S complex; with HisF
T1 sequence (Q9X0C8 1-201 C84S): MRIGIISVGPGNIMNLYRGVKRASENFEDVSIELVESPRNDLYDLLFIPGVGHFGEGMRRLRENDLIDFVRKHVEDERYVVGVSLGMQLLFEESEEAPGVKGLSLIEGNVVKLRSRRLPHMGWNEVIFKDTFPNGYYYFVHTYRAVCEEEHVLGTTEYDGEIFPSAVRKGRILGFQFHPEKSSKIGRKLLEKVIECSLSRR
T1 sequence (Q9X0C6 1-253 partner): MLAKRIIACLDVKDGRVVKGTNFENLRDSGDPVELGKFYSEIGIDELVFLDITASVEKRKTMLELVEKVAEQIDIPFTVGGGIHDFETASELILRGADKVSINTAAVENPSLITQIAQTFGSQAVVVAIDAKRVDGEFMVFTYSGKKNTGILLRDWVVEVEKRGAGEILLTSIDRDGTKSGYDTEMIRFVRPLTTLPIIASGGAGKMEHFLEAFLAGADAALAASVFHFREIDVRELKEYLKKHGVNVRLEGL

HisH [2] = biological target: T2, HisH (Thermotoga maritima, UniProt Q9X0C8, C84A); test: X-ray crystal structure at […] Å; type: binding
T2 construct: HisFH-hC84A complex; with HisF
T2 sequence (Q9X0C8 1-201 C84A): T1 sequence (Q9X0C8 1-201 C84S) with S84A
T2 sequence (Q9X0C6 1-253 partner): T1 sequence (Q9X0C6 1-253 partner)

HisH [3] = biological target: T3, HisH (Thermotoga maritima, UniProt Q9X0C8); test: NMR titration (methyl TROSY); type: binding; set-up: WT HisFH complex; with HisF
T3 sequence (Q9X0C8 1-201): T1 sequence (Q9X0C8 1-201 C84S) with S84C
T3 sequence (Q9X0C6 1-253 partner): T1 sequence (Q9X0C6 1-253 partner)

HisH [4] = biological target: T1, HisH; test: biochemical
HisF = biological target: T4, HisF (Thermotoga maritima, UniProt Q9X0C6); test: X-ray crystal structure at […] Å; NMR titration; glutaminase activation; type: binding
T4 construct: HisF-wt without tag, in the HisFH-hC84A complex; with HisH (hC84A)
T4 sequence (Q9X0C6 1-253): T1 sequence (Q9X0C6 1-253 partner)
T4 sequence (Q9X0C8 1-201 C84A partner): T1 sequence (Q9X0C8 1-201 C84S) with S84A

[5] = biological target: T5, HisF, cyclase subunit of imidazole glycerol phosphate synthase from Thermotoga maritima, wild type, without … (Thermotoga maritima, UniProt Q9X0C6 1-253); test: crystal structure; HisFH-hC84A complex at 30 mg/ml in 10 mM Tris-HCl pH 8.0, 100 mM NaCl; hanging drop, 18 °C, 10 mM L-glutamine, 10 mM ProFAR added by soaking; 2.06 Å; three HisFH complexes in the asymmetric unit; settings: both partners purified
T5 construct: HisF of Thermotoga maritima, Uniprot ID Q9X0C6; Crystallised as the HisFH-hC84A complex; also called HisF-wt; source: E. coli, expressed separately; cell lysate combined with that of HisH before the NiNTA column, complex purified (NiNTA, SEC)
T5 sequence: T1 sequence (Q9X0C6 1-253 partner)

[6] = biological target: T6, HisF, cyclase subunit of imidazole glycerol phosphate synthase from Thermotoga maritima, wild type (NMR … (Thermotoga maritima, UniProt Q9X0C6 1-253)); test: NMR spectra (TROSY, methyl-TROSY) of the complex reconstituted by SEC; HisF and HisH combined at a 1.3/1 ratio after TEV digestion, free HisF removed on Superdex 75 in NMR buffer (50 mM NaCl, 20 mM HEPES pH 7.3, 1 mM DTT); spectra at 30 °C, 50-150 µM protein; settings: both partners purified
T6 construct: HisF of Thermotoga maritima, Uniprot ID Q9X0C6; Deuterated and 15N labelled where HisF is observed; also called WT HisF; HisF-wt; source: E. coli BL21-CodonPlus (DE3)-RIL or BL21 Gold (DE3), purified (heat shock, NiNTA, TEV digestion, SEC); not shown: His-tag, N-terminal, cleaved
T6 sequence: T1 sequence (Q9X0C6 1-253 partner)

[7] = biological target: T7, HisF from Thermotoga maritima, K19A mutant (Thermotoga maritima, UniProt Q9X0C6 1-253, fK19A); test: as above; settings: both partners purified
T7 construct: HisF of Thermotoga maritima, Uniprot ID Q9X0C6; also called fK19A; source: E. coli, purified
T7 sequence (looked up): T1 sequence (Q9X0C6 1-253 partner) with K19A

[8] = biological target: T8, HisF from Thermotoga maritima, V48A mutant (Thermotoga maritima, UniProt Q9X0C6 1-253, fV48A); test: as above; settings: both partners purified
T8 construct: HisF of Thermotoga maritima, Uniprot ID Q9X0C6; also called fV48A; source: E. coli, purified
T8 sequence (looked up): T1 sequence (Q9X0C6 1-253 partner) with V48A

[9] = biological target: T9, HisF from Thermotoga maritima, F23A mutant (Thermotoga maritima, UniProt Q9X0C6 1-253, fF23A); test: as above; settings: both partners purified
T9 construct: HisF of Thermotoga maritima, Uniprot ID Q9X0C6; also called fF23A; source: E. coli, purified
T9 sequence (looked up): T1 sequence (Q9X0C6 1-253 partner) with F23A

[10] = biological target: T10, HisF from Thermotoga maritima, D98E mutant (Thermotoga maritima, UniProt Q9X0C6 1-253, fD98E); test: as above; settings: both partners purified
T10 construct: HisF of Thermotoga maritima, Uniprot ID Q9X0C6; also called fD98E; HisF-D98E; source: E. coli, purified
T10 sequence (looked up): T1 sequence (Q9X0C6 1-253 partner) with D98E

NC(=O)NC[C@H](N)C(=O)O [Albizziin]
NMR titration in the presence of ProFAR (HisH [1]): for the HisFH–hC84S mutant the active conformation is clearly visible

NC(=O)CC[C@H](N)C(=O)O [Gln]
X-ray crystal structure at 2.06 Å (HisH [2]): The asymmetric unit contains three HisFH complexes | Kd (HisH [3]): 1.3 ± 0.1 mM | Kd (HisH [4]): 1.7 ± 0.1 mM

NC(=O)c1ncn([C@@H]2O[C@H](COP(=O)(O)O)[C@@H](O)[C@H]2O)c1N=CN[C@@H]1O[C@H](COP(=O)(O)O)[C@@H](O)[C@H]1O [ProFAR]
X-ray crystal structure at 2.06 Å; NMR titration; glutaminase activation (HisF): the HisF active site shows unambiguous electron density for a ProFAR molecule

B1: HisH, glutaminase subunit of imidazole glycerol phosphate synthase from Thermotoga maritima, C84A mutant (crystallisation construct) (enzyme)
chain: T1 sequence (Q9X0C8 1-201 C84S) with S84A
notes: HisH of Thermotoga maritima, Uniprot ID Q9X0C8; also called hC84A; HisH-C84A; source: E. coli, expressed separately; cell lysate combined with that of HisF before the NiNTA column, complex purified (NiNTA, SEC)
binding result [5]: binds

B2: HisH from Thermotoga maritima, C84A mutant (NMR samples) (enzyme, UniProt Q9X0C8 1-201, looked up)
chain: T1 sequence (Q9X0C8 1-201 C84S) with S84A
notes: HisH of Thermotoga maritima, Uniprot ID Q9X0C8; probably the same construct as m2, kept apart because the state of the tag is told only for the labelled proteins; also called hC84A; source: E. coli BL21-CodonPlus (DE3)-RIL, purified (heat shock, NiNTA, TEV digestion, SEC); not shown: His-tag, N-terminal, cleaved
binding result [6]: binds

B3: HisH, glutaminase subunit of imidazole glycerol phosphate synthase from Thermotoga maritima, C84S mutant (enzyme, UniProt Q9X0C8 1-201, looked up)
chain: T1 sequence (Q9X0C8 1-201 C84S)
notes: HisH of Thermotoga maritima, Uniprot ID Q9X0C8; Deuterated, ILMVA methyl labelled or histidine ring-13C2 labelled for NMR; also called hC84S; HisH-C84S; source: E. coli BL21-CodonPlus (DE3)-RIL, purified (heat shock, NiNTA, TEV digestion, SEC); not shown: His-tag, N-terminal, cleaved
binding result [7]: binds | binding result [8]: binds | binding result [6]: binds | binding result [9]: binds | binding result [10]: binds
